B1: scFv; the commonest letter at each place (parent)
chain 1: EVKLDETGGGLVQPGRPMKLSCVASGFTFSDYWMNWVRQSPEKGLEWVAQIRNKPYNYETYYSDSVKGRFTISRDDSKSSVYLQMNNLRVEDMGIYYCTGSYYGMDYWGQGTSVTVS
chain 2: DVVMTQTPLSLPVSLGDQASISCRSSQSLVHSNGNTYLRWYLQKPGQSPKVLIYKVSNRFSGVPDRFSGSGSGTDFTLKISRVEAEDLGVYFCSQSTHVPWTFGGGTKLEIK

Tests used:
fluorescein = variants of: B1; assay: Kd (Tite-Seq); settings: with fluorescein; format: scFv 4-4-20, heavy + light
[1] = variants of: B1; assay: yeast surface expression (ratio to wild type); higher = more expressed; settings: format: scFv 4-4-20, heavy + light

Variant | Kd (fluorescein) | yeast surface expression [1]
chain 1 G100C S101W | ≥ 10 µM | 0.507
chain 1 G100C W108G | ≥ 10 µM | 0.401
chain 1 G100C W108L | 0.000389 µM | 0.653
chain 1 G100C W108T | 0.000846 µM | 0.565
chain 1 G100C Y102A | 0.00279 µM | 1.47
chain 1 G100C Y107E | ≥ 10 µM | 0.6
chain 1 G100C Y107S | 2.88 µM | 0.64
chain 1 G100D | ≥ 10 µM | 0.453
chain 1 G100D D106G G109S | ≥ 10 µM | 0.224
chain 1 G100D D106Q | ≥ 10 µM | 0.17
chain 1 G100D D106W | ≥ 10 µM | 0.254
chain 1 G100D G104A | ≥ 10 µM | 0.116
chain 1 G100D G109H | ≥ 10 µM | 0.602
chain 1 G100D G109I | ≥ 10 µM | 0.553
chain 1 G100D G109N | ≥ 10 µM | 0.118
chain 1 G100D G109T | ≥ 10 µM | 0.21
chain 1 G100D G109V | ≥ 10 µM | 0.136
chain 1 G100D M105W W108Y | ≥ 10 µM | 0.168
chain 1 G100D M105Y | ≥ 10 µM | 0.228
chain 1 G100D S101I | ≥ 10 µM | 0.0999

Variant | Kd (fluorescein) | yeast surface expression [1]
chain 1 G100D S101W | ≥ 10 µM | 0.171
chain 1 G100D W108R | ≥ 10 µM | 0.146
chain 1 G100D Y102S | ≥ 10 µM | 0.289
chain 1 G100D Y103C | ≥ 10 µM | 0.414
chain 1 G100D Y107V | ≥ 10 µM | 0.406
chain 1 G100E | ≥ 10 µM | 0.388
chain 1 G100E D106H | ≥ 10 µM | 0.289
chain 1 G100E D106M | ≥ 10 µM | 0.17
chain 1 G100E D106Q | ≥ 10 µM | 0.172
chain 1 G100E G104I | ≥ 10 µM | 0.281
chain 1 G100E G109Y | ≥ 10 µM | 0.199
chain 1 G100E M105D | ≥ 10 µM | 0.296
chain 1 G100E S101V | ≥ 10 µM | 0.225
chain 1 G100E W108G G109H | ≥ 10 µM | 0.242
chain 1 G100E Y102G | ≥ 10 µM | 0.488
chain 1 G100E Y102S W108I | 0.0302 µM | 0.245
chain 1 G100E Y107H | ≥ 10 µM | 0.501
chain 1 G100F | ≥ 10 µM | 0.93
chain 1 G100F D106K | ≥ 10 µM | 0.653
chain 1 G100F G109K | ≥ 10 µM | 0.265

Variant | Kd (fluorescein) | yeast surface expression [1]
chain 1 G100F G109N | ≥ 10 µM | 0.41
chain 1 G100F G109V | ≥ 10 µM | 0.253
chain 1 G100F M105D | ≥ 10 µM | 0.573
chain 1 G100F M105K | ≥ 10 µM | 1.1
chain 1 G100F S101I | ≥ 10 µM | 0.501
chain 1 G100F S101M | ≥ 10 µM | 0.704
chain 1 G100F S101T G104Y | ≥ 10 µM | 0.437
chain 1 G100F W108A | ≥ 10 µM | 0.671
chain 1 G100F Y102D | ≥ 10 µM | 0.974
chain 1 G100F Y107I | ≥ 10 µM | 0.947
chain 1 G100F Y107T | ≥ 10 µM | 0.842
chain 1 G100H | ≥ 10 µM | 0.432
chain 1 G100H D106C | ≥ 10 µM | 0.222
chain 1 G100H D106F | 9.5 µM | 0.752
chain 1 G100H S101E | ≥ 10 µM | 0.4
chain 1 G100H S101G | ≥ 10 µM | 0.649
chain 1 G100H S101H | ≥ 10 µM | 0.273
chain 1 G100H W108D | ≥ 10 µM | 0.321

From the FLAb antibody collection (doi:10.7554/elife.23156)
